Assay results reported in article PMC12072009, “Catalytic Efficiency Improvement in Cellobiohydrolase I by Cross-Species Domain Exchange Engineering” (International Journal of Molecular Sciences, 2025).
One block for each molecule: values may come before it.

Experiments:
Conditions in all cases: 50 mM citric acid sodium citrate buffer, pH 4.8, 50 °C
[1] = system: T1, TC-CBH; assay: fluorescence of released methylumbelliferone (ex […], em […] nm), Michaelis-Menten nonlinear fit; assay type: biochemical, Trichoderma reesei; Thermochaetoides thermophila
T1 construct: gene cbh1; single-chain fusion: T. reesei CBHI with its CBM replaced by that of C. thermophilum CBHI (GenBank AM711862.1); secreted from T. reesei Tu-6 delta-ku70

[2] = system: T2, CT-CBH; assay: as above; assay type: biochemical, Thermochaetoides thermophila; Trichoderma reesei
T2 construct: gene cbh1; single-chain fusion: C. thermophilum CBHI (GenBank AM711862.1) with its CBM replaced by that of T. reesei CBHI; secreted from T. reesei Tu-6 delta-ku70

[3] = substrate: Cc1cc(=O)oc2cc(O[C@@H]3O[C@H](CO)[C@@H](O[C@@H]4O[C@H](CO)[C@@H](O)[C@H](O)[C@H]4O)[C@H](O)[C@H]3O)ccc12; assay: purified protein; assay type: biochemical, Trichoderma reesei
[4] = substrate: Cc1cc(=O)oc2cc(O[C@@H]3O[C@H](CO)[C@@H](O[C@@H]4O[C@H](CO)[C@@H](O)[C@H](O)[C@H]4O)[C@H](O)[C@H]3O)ccc12; assay: purified protein; assay type: biochemical, Thermochaetoides thermophila

Km [1]: 1200 µM
Km [2]: 700 µM
Molecule: Cc1cc(=O)oc2cc(O[C@@H]3O[C@H](CO)[C@@H](O[C@@H]4O[C@H](CO)[C@@H](O)[C@H](O)[C@H]4O)[C@H](O)[C@H]3O)ccc12 [MUC]

B1: T-CBH (Trichoderma reesei CBHI) (Trichoderma reesei QM6a) (protein)
chain: QSACTLQSETHPPLTWQKCSSGGTCTQQTGSVVIDANWRWTHATNSSTNCYDGNTWSSTLCPDNETCAKNCCLDGAAYASTYGVTTSGNSLSIGFVTQSAQKNVGARLYLMASDTTYQEFTLLGNEFSFDVDVSQLPCGLNGALYFVSMDADGGVSKYPTNTAGAKYGTGYCDSQCPRDLKFINGQANVEGWEPSSNNANTGIGGHGSCCSEMDIWEANSISEALTPHPCTTVGQEICEGDGCGGTYSDNRYGGTCDPDGCDWNPYRLGNTSFYGPGSSFTLDTTKKLTVVTQFETSGAINRYYVQNGVTFQQPNAELGSYSGNELNDDYCTAEEAEFGGSSFSDKGGLTQFKKATSGGMVLVMSLWDDYYANMLWLDSTYPTNETSSTPGAVRGSCSTSSGVPAQVESQSPNAKVTFSNIKFGPIGSTGNPSGGNPPGGNPPGTTTTRRPATTTGSSPGPTQSHYGQCGGIGYSGPTVCASGTTCQVLNPYYSQCL
notes: full length: catalytic domain, linker, CBM; secreted from T. reesei Tu-6 delta-ku70 (cDNA1 promoter); no tag stated; concentrated by 30 kDa ultrafiltration
Km [3]: 1300 µM
kcat [3]: 1.29 s⁻¹
kcat/Km [3]: 1030 M⁻¹ s⁻¹

B2: C-CBH (Chaetomium thermophilum CBHI) (Thermochaetoides thermophila) (protein)
chain: QQACSLTAENHPSLTWKRCTSGGSCSTVNGAVTIDANWRWTHTVSGSTNCYTGNQWDTSLCTDGKSCAQTCCVDGADYSSTYGITTSGDSLNLKFVTKHQYGTNVGSRVYLMENDTKYQMFELLGNEFTFDVDVSNLGCGLNGALYFVSMDADGGMSKYSGNKAGAKYGTGYCDAQCPRDLKFINGEANVGNWTPSTNDANAGFGRYGSCCSEMDVWEANNMATAFTPHPCTTVGQSRCEADTCGGTYSSDRYAGVCDPDGCDFNAYRQGDKTFYGKGMTVDTNKKMTVVTQFHKNSAGVLSEIKRFYVQDGKIIANAESKIPGNPGNSITQEYCDAQKVAFSNTDDFNRKGGMAQMSKALAGPMVLVMSVWDDHYANMLWLDSTYPIDQAGAPGAERGACPTTSGVPAEIEAQVPNSNVIFSNIRFGPIGSTVPGLDGSNPGNPTTTVVPPASTSTSRPTSSTSSPVSTPTGQPGGCTTQKWGQCGGIGYTGCTNCVAGTTCTQLNPWYSQCL
notes: full length: catalytic domain, linker, CBM; secreted from T. reesei Tu-6 delta-ku70 (common signal peptide for all four constructs, cDNA1 promoter); no tag stated; concentrated by 30 kDa ultrafiltration
Km [4]: 1100 µM
kcat [4]: 1.56 s⁻¹
kcat/Km [4]: 1480 M⁻¹ s⁻¹
